Here are results for 14 molecules from patent US20230312741A1 (published 2023).

Numbering of substitutions follows the chain as printed.

First the molecules themselves.
T1: human CD73 expressed on the cell surface (human, UniProt P21589 27-549)
T1 sequence: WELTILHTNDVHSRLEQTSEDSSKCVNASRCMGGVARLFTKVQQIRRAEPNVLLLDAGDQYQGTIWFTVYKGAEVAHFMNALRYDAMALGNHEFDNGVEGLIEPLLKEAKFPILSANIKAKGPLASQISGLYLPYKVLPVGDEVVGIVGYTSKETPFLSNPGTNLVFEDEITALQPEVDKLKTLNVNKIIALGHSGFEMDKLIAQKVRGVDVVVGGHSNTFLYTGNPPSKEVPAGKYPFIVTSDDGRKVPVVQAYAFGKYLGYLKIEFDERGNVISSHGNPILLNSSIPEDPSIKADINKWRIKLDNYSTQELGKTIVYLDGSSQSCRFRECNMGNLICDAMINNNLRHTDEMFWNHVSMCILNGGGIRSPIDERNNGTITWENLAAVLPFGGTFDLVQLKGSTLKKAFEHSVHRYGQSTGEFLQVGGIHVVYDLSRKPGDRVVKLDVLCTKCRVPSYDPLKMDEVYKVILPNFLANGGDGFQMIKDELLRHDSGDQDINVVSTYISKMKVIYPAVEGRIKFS

T2: human CD73 antigen (human, UniProt P21589 27-547)
T2 construct: also called Biotinylated Human CD73
T2 sequence (looked up): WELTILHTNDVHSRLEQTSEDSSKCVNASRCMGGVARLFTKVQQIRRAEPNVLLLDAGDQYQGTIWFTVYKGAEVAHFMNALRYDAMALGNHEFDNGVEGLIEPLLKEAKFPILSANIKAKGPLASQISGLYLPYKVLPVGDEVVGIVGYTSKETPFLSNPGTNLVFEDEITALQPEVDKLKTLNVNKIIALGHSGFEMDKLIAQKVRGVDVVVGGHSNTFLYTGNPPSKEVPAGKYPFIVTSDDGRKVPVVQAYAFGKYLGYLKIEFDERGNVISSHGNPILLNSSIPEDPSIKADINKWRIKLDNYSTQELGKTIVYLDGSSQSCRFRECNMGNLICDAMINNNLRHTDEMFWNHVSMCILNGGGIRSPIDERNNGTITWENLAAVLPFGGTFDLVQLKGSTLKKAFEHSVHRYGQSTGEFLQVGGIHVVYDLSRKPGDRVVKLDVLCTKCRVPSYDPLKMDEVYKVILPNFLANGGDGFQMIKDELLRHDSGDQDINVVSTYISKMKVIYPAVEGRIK

T3: cynomolgus monkey CD73 antigen (cynomolgus monkey, UniProt A0A2K5V5U7 27-547)
T3 construct: also called Biotinylated cynomolgus monkey CD73
T3 sequence: T2 sequence (looked up) with M199T, T350A, V466I

B1: ADI-34071 (antibody, human IgG4 S228P, kappa, F234A L235A, V domains shown)
VH: EVQLVESGGGLVQPGRSLRLSCAASGFTFDDYAMHWVRQAPGKGLEWVSGISWSSGSIGYADSVKGRFTISRDNAKNSLYLQMNSLRAEDTAVYYCAKDRRYGLTYGMDVWGQGTTVTVSS
VL: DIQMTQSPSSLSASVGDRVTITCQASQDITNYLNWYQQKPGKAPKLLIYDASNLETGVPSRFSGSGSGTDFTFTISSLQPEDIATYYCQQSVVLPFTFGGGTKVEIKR
notes: Parental antibody from the yeast library
B2: ADI-34104 (antibody, human IgG4 S228P, kappa, F234A L235A, V domains shown)
VH: QVQLQESGPGLVKPSETLSLTCAVSGYSISSGYYWGWIRQPPGKGLEWIGSIYHSGSTYYNPSLKSRVTISVDTSKNQFSLKLSSVTAADTAVYYCARASIYTPPPEYFQHWGQGTLVTVSS
VL: DIQMTQSPSTLSASVGDRVTITCRASQSISSWLAWYQQKPGKAPKLLIYDASSLESGVPSRFSGSGSGTEFTLTISSLQPDDFATYYCQQSRIYSTFGGGTKVEIKR
notes: Parental antibody
B3: Oleclumab (antibody, V domains shown)
VH: EVQLLESGGGLVQPGGSLRLSCAASGFTFSSYAYSWVRQAPGKGLEWVSAISGSGGRTYYADSVKGRFTISRDNSKNTLYLQMNSLRAEDTAVYYCARLGYGRVDEWGRGTLVTVSS
VL: QSVLTQPPSASGTPGQRVTISCSGSLSNIGRNPVNWYQQLPGTAPKLLIYLDNLRLSGVPDRFSGSKSGTSASLAISGLQSEDEADYYCATWDDSHPGWTFGGGTKLTVL
B4: ADI-34101 (antibody, human IgG4 S228P, kappa, F234A L235A, V domains shown)
VH: QVQLVESGGGVVQPGRSLRLSCAASGFTFSSYGMHWVRQAPGKGLEWVAVISYEGSNKYYADSVKGRFTISRDNSKNTLYLQMNSLRAEDTAVYYCARSRYDWSLFDIWGQGTMVTVSS
VL: EIVLTQSPGTLSLSPGERATLSCRASQSVSSSYLAWYQQKPGQAPRLLIYGASSRATGIPDRFSGSGSGTDFTLTISRLEPEDFAVYYCQQYVLYPFTFGGGTKVEIKR
notes: Parental antibody
B5: ADI-34095 (antibody, human IgG4 S228P, kappa, F234A L235A, V domains shown)
VH: QVQLVESGGGVVQPGRSLRLSCAASGFTFSSYGMHWVRQAPGKGLEWVAVISYEGSNKYYADSVKGRFTISRDNSKNTLYLQMNSLRAEDTAVYYCARGGARYPIAFDIWGQGTMVTVSS
VL: DIQLTQSPSSVSASVGDRVTITCRASQDISSWLAWYQQKPGKAPKLLIYAASSLQSGVPSRFSGSGSGTDFTLTISSLQPEDFATYYCQQANDFPITFGGGTKVEIKR
B6: ADI-34074 (antibody, human IgG4 S228P, kappa, F234A L235A, V domains shown)
VH: EVQLVESGGGLVQPGRSLRLSCAASGFTFDDYAMHWVRQAPGKGLEWVSGISWSSGSIGYADSVKGRFTISRDNAKNSLYLQMNSLRAEDTAVYYCAKGKYLPTGSVDYWGQGTLVTVSS
VL: EIVLTQSPGTLSLSPGERATLSCRASQSVSSSYLAWYQQKPGQAPRLLIYGASSRATGIPDRFSGSGSGTDFTLTISRLEPEDFAVYYCQQYYDYPPITFGGGTKVEIKR
notes: Parental antibody; also called AD-34074
B7: ADI-34086 (antibody, human IgG4 S228P, kappa, F234A L235A, V domains shown)
VH: EVQLLESGGGLVQPGGSLRLSCAASGFTFSNYAMSWVRQAPGKGLEWVSAISGSGGSTYYADSVKGRFTISRDNSKNTLYLQMNSLRAEDTAVYYCARGGPYGSGSYWDTFDYWGQGTLVTVSS
VL: EIVMTQSPATLSVSPGERATLSCRASQSVSSNLAWYQQKPGQAPRLLIYGASTRATGIPARFSGSGSGTEFTLTISSLQSEDFAVYYCQQYTNHYTFGGGTKVEIKR
notes: Parental antibody
B8: scfv fragment of ADI-37542 (scFv, V domains shown)
VH: B2 VH with S31E, S55T, S57F
VL: DIQMTQSPSTLSASVGDRVTITCRASQSISSWLAWYQQKPGKAPKLLIYDASSLESGVPSRFSGSGSGTEFTLTISSLQPDDFATYYCQQSRIYSTFGGGTKVEIK
B9: scfv fragment of ADI-37543 (scFv, V domains shown)
VH: B2 VH with G36A, Y53F, S57F, Y59F
VL: B8 VL
B10: scfv fragment of ADI-37532 (scFv, V domains shown)
VH: QVQLVESGGGVVQPGRSLRLSCAASGFTFSSYSMHWVRQAPGKGLEWVAHIVEGSDKYYADSVKGRFTISRDNSKNTLYLQMNSLRAEDTAVYYCARSRYDWSLFDIWGQGTMVTVSS
VL: EIVLTQSPGTLSLSPGERATLSCGASQSVSSSYLAWYQQKPGQAPRLLIYGASSRATGIPDRFSGSGSGTDFTLTISRLEPEDFAVYYCQQYVLYPFTFGGGTKVEIK
B11: scfv fragment of ADI-37513 (scFv, V domains shown)
VH: B5 VH with Q1E, V5L, S30N, S31F, S52N, Y53D, S56I
VL: DIQLTQSPSSVSASVGDRVTITCRASQDISSWLAWYQQKPGKAPKLLIYAASSLQSGVPSRFSGSGSGTDFTLTISSLQPEDFATYYCQQANDFPITFGGGTKVEIK
B12: scfv fragment of ADI-37522 (scFv, V domains shown)
VH: B5 VH with S31H, Y53D, G100W, A101L
VL: B11 VL
B13: scfv fragment of ADI-37497 (scFv, V domains shown)
VH: B6 VH with R16G, A33F, S57P, G59D
VL: EIVLTQSPGTLSLSPGERATLSCRASQSVSSSYLAWYQQKPGQAPRLLIYGASSRATGIPDRFSGSGSGTDFTLTISRLEPEDFAVYYCQQYYDYPPITFGGGTKVEIK
B14: scfv fragment of ADI-37496 (scFv, V domains shown)
VH: B6 VH with Y32F, A33Y, G56T, G59D
VL: B13 VL

The first assay addresses T1, human CD73 expressed on the cell surface. The experiment in a line: cell-based or functional assay.
Take B1: the “CD73 enzymatic activity assay IC50 (Calu-6 cells, CellTiter-Glo)” value (shortened to “CD73 enzymatic activity assay IC50”) was 0.171 µg/mL.
For B2, the “CD73 enzymatic activity assay IC50” value was determined as 0.142 µg/mL.
B3: the “CD73 enzymatic activity assay IC50” value came to 0.167 µg/mL.
With B4, the “CD73 enzymatic activity assay IC50” value amounted to 0.153 µg/mL.
The same measure, in the same setting: for B5 the value was 0.279 µg/mL.
As for B6, the “CD73 enzymatic activity assay IC50” value is 0.476 µg/mL.
Still for that read-out and setting: for B7 the value was 0.089 µg/mL.

Another assay shares this target. As to the kind of experiment: cell-based or functional assay. This is another data set of the same source.
B3: the “IC50 for inhibiting the enzymatic activity of CD73 (Calu-6 cells)” value was found to be 0.177 µg/mL.

A further assay addresses T2, human CD73 antigen. As to the kind of experiment: ForteBio BLI; antigen on sensor, 100 nM scFv; monovalent; 1:1 model.
Experimental: (§1) Human or cynomolgus monkey CD73 antigen protein was loaded on-line to the AHQ sensor (ForteBio) for ForteBio affinity measurement. […] Kinetic analysis was performed by using a 1:1 binding model.
In turn, B8 yielded a Kd of 6.04 nM.
B9 returned a Kd of 3.85 nM.
The molecule B10 had a Kd of 0.581 nM.
Turning to B11, the Kd is 2.84 nM.
Consider B12, for which the Kd is 2.43 nM.
Molecule B13 yielded a Kd of 10.2 nM.
B14 registered a Kd of 13.8 nM.

Another assay concerns the target T3, cynomolgus monkey CD73 antigen. The assay is described as above.
Experimental: as §1
In the case of B8, the Kd is 5.47 nM.
Molecule B9 returned a Kd of 2.99 nM.
With B10, the Kd was determined as 0.53 nM.
Still for that read-out and setting: next, B11: 2.26 nM; B12: 2.93 nM; B13: 8.82 nM.
For B14, the Kd is 13.7 nM.

The next assay deals with T2, human CD73 antigen. As to the kind of experiment: ForteBio BLI; IgG on AHQ sensor, 100 nM antigen; bivalent; 1:1 model. For orientation: Biolayer interferometry detects binding as a change in optical thickness at a sensor tip.
Experimental: (§2) Briefly, the sensor was equilibrated off-line in assay buffer for 30 min, then on-line detection was carried out for 60 sec to establish a baseline. The purified antibody obtained as described above was loaded on-line to the AHQ sensor (ForteBio) for ForteBio affinity determination. The sensor loaded with the antibody was then exposed to 100 nM of human or cynomolgus monkey antigen for 5 minutes, after which the sensor was transferred to assay buffer for dissociation for 5 minutes to determine the dissociation rate. Kinetic analysis was performed by using a 1:1 binding model.
B1 had a Kd of 0.892 nM.
Regarding B2, the Kd came out at 0.847 nM.
On to B3, for which the Kd stood at 0.948 nM.
In the case of B4, the Kd was 1.07 nM.
With B6, the Kd was 2.12 nM.
B7 came in with a Kd of 1.23 nM.

For another assay, the target named is T3, cynomolgus monkey CD73 antigen. Described as above.
Experimental: as §2
Take B1: the Kd was determined as 1.34 nM.
The same measure, in the same setting: next, B3: 0.96 nM.
B4 registered a Kd of 1.57 nM.
The same measure, in the same setting: for B6 the value was 3.13 nM.
The same measure, in the same setting: next, B7: 1.9 nM.
